Experimental findings from PMC5415106, “Dpb11 may function with RPA and DNA to initiate DNA replication” are described below.

Series [1] addresses T1, Dpb11 wild-type (Saccharomyces cerevisiae (budding yeast), UniProt P47027 1-764).
T1 sequence: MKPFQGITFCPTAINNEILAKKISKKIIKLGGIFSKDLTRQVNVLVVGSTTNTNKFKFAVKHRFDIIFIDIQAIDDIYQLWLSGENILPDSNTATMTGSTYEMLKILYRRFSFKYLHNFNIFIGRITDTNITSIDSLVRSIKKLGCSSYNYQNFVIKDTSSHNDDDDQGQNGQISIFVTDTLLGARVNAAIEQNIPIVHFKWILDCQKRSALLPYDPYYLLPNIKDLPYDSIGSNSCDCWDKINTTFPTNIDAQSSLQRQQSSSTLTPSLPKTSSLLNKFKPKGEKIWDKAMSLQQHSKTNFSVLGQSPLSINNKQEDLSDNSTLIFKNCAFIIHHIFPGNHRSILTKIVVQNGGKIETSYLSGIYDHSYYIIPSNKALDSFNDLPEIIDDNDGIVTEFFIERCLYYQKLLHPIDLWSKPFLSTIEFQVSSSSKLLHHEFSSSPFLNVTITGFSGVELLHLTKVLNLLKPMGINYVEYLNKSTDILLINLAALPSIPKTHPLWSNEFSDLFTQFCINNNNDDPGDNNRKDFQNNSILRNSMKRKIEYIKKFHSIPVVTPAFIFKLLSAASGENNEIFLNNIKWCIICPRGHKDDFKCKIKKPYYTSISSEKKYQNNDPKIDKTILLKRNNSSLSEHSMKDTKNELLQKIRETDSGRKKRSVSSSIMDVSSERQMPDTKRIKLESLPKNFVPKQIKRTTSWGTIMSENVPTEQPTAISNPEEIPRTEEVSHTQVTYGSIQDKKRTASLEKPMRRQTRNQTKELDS
Kind of series: EMSA; more than half bound at 40 nM; EMSA: 1 nM 32P-DNA, 20 mM Tris-HCl pH 7.5, 0.1 mM EDTA, 0.2 mM DTT, 10% glycerol, 40 mg/ml BSA (so in the source), 5 min at 30 C, 0.7% native agarose in 0.5x TBE; GST pull-down: 40 mM Tris-HCl pH 7.5, 100 mM NaCl, 0.1 mM EDTA, 10% glycerol, 0.1% Triton X-100, 1 mM DTT, 0.1 mg/ml BSA, 25 C. The settings on record: protein: recombinant; (nickel column purification); label: 32P. In general terms: Mobility shift assays separate free from complexed probe on a gel.

Series [2] addresses T1, Dpb11 wild-type. The series is described as follows: EMSA; nearly 80% bound at 20 nM; EMSA: 1 nM 32P-DNA, 20 mM Tris-HCl pH 7.5, 0.1 mM EDTA, 0.2 mM DTT, 10% glycerol, 40 mg/ml BSA (so in the source), 5 min at 30 C, 0.7% native agarose in 0.5x TBE; GST pull-down: 40 mM Tris-HCl pH 7.5, 100 mM NaCl, 0.1 mM EDTA, 10% glycerol, 0.1% Triton X-100, 1 mM DTT, 0.1 mg/ml BSA, 25 C. The settings on record: protein: recombinant, (nickel column purification), label: 32P.

The target in another series is TopBP1 full-length (Homo sapiens, UniProt Q92547 1-1522). Kind of series: EMSA; nearly 50% shifted at 20 nM; EMSA: 1 nM 32P-DNA, 20 mM Tris-HCl pH 7.5, 0.1 mM EDTA, 0.2 mM DTT, 10% glycerol, 40 mg/ml BSA (so in the source), 5 min at 30 C, 0.7% native agarose in 0.5x TBE; GST pull-down: 40 mM Tris-HCl pH 7.5, 100 mM NaCl, 0.1 mM EDTA, 10% glycerol, 0.1% Triton X-100, 1 mM DTT, 0.1 mg/ml BSA, 25 C. The note with it: protein: recombinant, label: 32P.

In series [3] the target is T1, Dpb11 wild-type. Kind of series: EMSA; 80 nM required to bind more than half; EMSA: 1 nM 32P-DNA, 20 mM Tris-HCl pH 7.5, 0.1 mM EDTA, 0.2 mM DTT, 10% glycerol, 40 mg/ml BSA (so in the source), 5 min at 30 C, 0.7% native agarose in 0.5x TBE; GST pull-down: 40 mM Tris-HCl pH 7.5, 100 mM NaCl, 0.1 mM EDTA, 10% glycerol, 0.1% Triton X-100, 1 mM DTT, 0.1 mg/ml BSA, 25 C. The settings on record: protein: recombinant, (nickel column purification), label: 32P.

For series [4], the target named is T1, Dpb11 wild-type. The series is described as follows: EMSA; 320 nM required to bind more than half; EMSA: 1 nM 32P-DNA, 20 mM Tris-HCl pH 7.5, 0.1 mM EDTA, 0.2 mM DTT, 10% glycerol, 40 mg/ml BSA (so in the source), 5 min at 30 C, 0.7% native agarose in 0.5x TBE; GST pull-down: 40 mM Tris-HCl pH 7.5, 100 mM NaCl, 0.1 mM EDTA, 10% glycerol, 0.1% Triton X-100, 1 mM DTT, 0.1 mg/ml BSA, 25 C. The note with it: protein: recombinant; (nickel column purification); label: 32P; blunt.

Where [5] appears, read: fork 1:2, 31 bp duplex with two T80 arms.
Where [6] appears, read: bubble: 31 bp and 22 bp duplexes flanking T80/T80 loop.

Sequence of TopBP1 full-length (Q92547 whole entry): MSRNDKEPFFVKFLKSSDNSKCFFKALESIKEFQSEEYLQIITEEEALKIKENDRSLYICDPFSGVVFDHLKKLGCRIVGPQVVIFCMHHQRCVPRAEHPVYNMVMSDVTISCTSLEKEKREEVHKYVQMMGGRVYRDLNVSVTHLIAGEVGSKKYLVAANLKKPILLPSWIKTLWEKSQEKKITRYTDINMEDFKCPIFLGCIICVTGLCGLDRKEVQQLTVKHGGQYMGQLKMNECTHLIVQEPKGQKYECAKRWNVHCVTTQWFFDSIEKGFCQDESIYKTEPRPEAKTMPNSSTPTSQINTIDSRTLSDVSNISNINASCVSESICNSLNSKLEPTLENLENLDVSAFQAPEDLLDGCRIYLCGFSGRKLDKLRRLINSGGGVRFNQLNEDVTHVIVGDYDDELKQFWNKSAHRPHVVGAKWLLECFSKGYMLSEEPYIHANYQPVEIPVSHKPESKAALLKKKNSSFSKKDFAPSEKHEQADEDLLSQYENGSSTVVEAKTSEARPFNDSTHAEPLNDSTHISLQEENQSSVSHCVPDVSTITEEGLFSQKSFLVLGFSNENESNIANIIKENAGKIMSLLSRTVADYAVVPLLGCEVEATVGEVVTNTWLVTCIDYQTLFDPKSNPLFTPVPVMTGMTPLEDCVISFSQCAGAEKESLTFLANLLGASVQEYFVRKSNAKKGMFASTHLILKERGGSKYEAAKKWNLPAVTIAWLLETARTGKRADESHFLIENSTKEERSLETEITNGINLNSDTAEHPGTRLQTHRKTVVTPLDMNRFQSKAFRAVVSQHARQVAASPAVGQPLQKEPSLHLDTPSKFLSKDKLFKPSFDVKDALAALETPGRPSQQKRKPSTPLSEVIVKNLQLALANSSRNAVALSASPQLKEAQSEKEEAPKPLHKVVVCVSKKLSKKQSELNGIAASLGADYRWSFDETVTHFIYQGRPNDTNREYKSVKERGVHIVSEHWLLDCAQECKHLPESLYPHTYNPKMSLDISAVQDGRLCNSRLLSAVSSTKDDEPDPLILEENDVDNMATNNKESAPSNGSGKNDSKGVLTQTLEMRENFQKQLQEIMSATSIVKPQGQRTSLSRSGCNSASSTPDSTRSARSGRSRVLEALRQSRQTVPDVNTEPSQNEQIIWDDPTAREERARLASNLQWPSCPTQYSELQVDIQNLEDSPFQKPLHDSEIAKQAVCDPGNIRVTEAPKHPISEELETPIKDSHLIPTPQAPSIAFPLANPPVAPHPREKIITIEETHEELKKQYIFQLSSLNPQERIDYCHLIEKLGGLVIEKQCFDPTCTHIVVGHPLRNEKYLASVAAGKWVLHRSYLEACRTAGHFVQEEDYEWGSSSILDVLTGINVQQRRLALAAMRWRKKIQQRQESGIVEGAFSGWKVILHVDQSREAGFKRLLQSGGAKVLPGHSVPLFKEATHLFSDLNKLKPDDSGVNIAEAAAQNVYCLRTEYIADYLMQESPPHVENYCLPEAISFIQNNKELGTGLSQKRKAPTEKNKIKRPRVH

B1: ssDNA (dT80) (ssDNA)
DNA: TTTTTTTTTTTTTTTTTTTTTTTTTTTTTTTTTTTTTTTTTTTTTTTTTTTTTTTTTTTTTTTTTTTTTTTTTTTTTTTT
In the case of B1, the “apparent K (half saturation)” value in the series with Dpb11 wild-type [1] was below 40 nM.

B2: fork DNA (structured_DNA)
DNA 1: ATGTCCTAGCAAGCCAGAATTCGGCAGCGTCTTTTTTTTTTTTTTTTTTTTTTTTTTTTTTTTTTTTTTTTTTTTTTTTTTTTTTTTTTTTTTTTTTTTTTTTTTTTTTTT
DNA 2: TTTTTTTTTTTTTTTTTTTTTTTTTTTTTTTTTTTTTTTTTTTTTTTTTTTTTTTTTTTTTTTTTTTTTTTTTTTTTTTTGACGCTGCCGAATTCTGGCTTGCTAGGACAT
For B2, the “apparent K (half saturation)” value with Dpb11 wild-type [2] (setting [5]) was below 20 nM; with TopBP1 full-length (setting [5]) it was around 20 nM.

B3: 5'-tailed DNA (mixed)
DNA 1: ATGTCCTAGCAAGCCAGAATTCGGCAGCGTC
DNA 2: TTTTTTTTTTTTTTTTTTTTTTTTTTTTTTTTTTTTTTTTTTTTTTTTTTTTTTTTTTTTTTTTTTTTTTTTTTTTTTTTGACGCTGCCGAATTCTGGCTTGCTAGGACAT
As for B3, the “apparent K (half saturation)” value with TopBP1 full-length (5' overhang 80 nt (T)) is around 20 nM; with Dpb11 wild-type [3] (5' overhang 80 nt (T)), around 80 nM.

B4: 3'-tailed DNA (mixed)
DNA 1: GACGCTGCCGAATTCTGGCTTGCTAGGACAT
DNA 2: ATGTCCTAGCAAGCCAGAATTCGGCAGCGTCTTTTTTTTTTTTTTTTTTTTTTTTTTTTTTTTTTTTTTTTTTTTTTTTTTTTTTTTTTTTTTTTTTTTTTTTTTTTTTTT
For B4, the results for the “apparent K (half saturation)” value in the series with TopBP1 full-length (3' overhang 80 nt (T)) and with Dpb11 wild-type [3] (3' overhang 80 nt (T)) were around 20 nM and around 80 nM, respectively.

B5: bubble DNA (structured_DNA)
DNA 1: ATGTCCTAGCAAGCCAGAATTCGGCAGCGTCTTTTTTTTTTTTTTTTTTTTTTTTTTTTTTTTTTTTTTTTTTTTTTTTTTTTTTTTTTTTTTTTTTTTTTTTTTTTTTTTCCACGTCGGCGTCGCCACGAGC
DNA 2: GCTCGTGGCGACGCCGACGTGGTTTTTTTTTTTTTTTTTTTTTTTTTTTTTTTTTTTTTTTTTTTTTTTTTTTTTTTTTTTTTTTTTTTTTTTTTTTTTTTTGACGCTGCCGAATTCTGGCTTGCTAGGACAT
As for B5, the “apparent K (half saturation)” value with Dpb11 wild-type [2] (setting [6]) is below 20 nM; in the series with TopBP1 full-length (setting [6]), around 20 nM.

B6: blunt dsDNA (dsDNA)
DNA 1: ATGTCCTAGCAAGCCAGAATTCGGCAGCGTC
DNA 2: GACGCTGCCGAATTCTGGCTTGCTAGGACAT
Turning to B6, in the series with Dpb11 wild-type [4], the “apparent K (half saturation)” value is around 320 nM.
